Test results as given in the supplement of paper PMC9170038.

Test system: MS2 coat protein
Test: apparent KD of MS2 coat protein; designed switch direction (-1 OFF switch, 1 ON switch): -1; higher = weaker reporter binding
Procedure, shortened: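 For each design, the apparent KD is the median over clusters of curves fitted to normalised cluster fluorescence. Clusters held RNA switches with common flanks, transcribed on Illumina chips by stalled E. coli RNA polymerase. These were titrated with SNAP-549-labelled MS2 coat protein, doubling from 0.7 or 1.5 nM to 3 µM, without input, with 200 uM small-molecule ligand, or with an oligonucleotide input.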

[1] = Eterna round: R95, input ligand: FMN 200 uM
[2] = Eterna round: R95, input ligand: microRNA oligo, concentration not stated
[3] = Eterna round: R95, input ligand: none
[4] = input ligand: microRNA oligo, concentration not stated

Row | Sequence | apparent KD of MS2 coat protein [2] [nM] | apparent KD of MS2 coat protein (input ligand: FMN 200 uM) [nM] | apparent KD of MS2 coat protein (input ligand: none) [nM] | other results
1 | AAUUGCUAGCCGAUCCUCCACAUGAGGAUCACCCAUGUGCUCGUCUUGUAAUGUGCUAUCACGAAAGUGAUAGUACA [Sensor v3, turn-off variant 1 (MOD of Eli's v1-59 v.4)] (puzzle: Sensor v3, turn-off variant 1) | 13.4 | – | – | apparent KD of MS2 coat protein [1]: 413 nM; apparent KD of MS2 coat protein [3]: 315 nM
2 | CAACCGAAUCAGUGAAUGCCGACAUGAGGAUCACCCAUGUGUGAGGAUAUUUUAGUAGAGAACUAAAAGAAGGCACCUGGAAAG [Eternabot solution 20] (Eterna round: R96, puzzle: Exclusion NG 3) | – | 70.2 | 39.8 | apparent KD of MS2 coat protein [4]: 22.4 nM
3 | GUCUAGCGAGGAUAUUGCAGACGAAACAUGAGGAUCACCCAUGUGGCCUUGUGCCGUGUGCAAGAAGGCGCGAGGC [Gelelaor] (Eterna round: R97, puzzle: Exclusion 5) | – | 297 | 268 | –
4 | UGUUGUUCCGAAGGAUAUGUAUGAGGAUCACCCAUAAGAGUUGAUGUACCAUGAGGAUCACCCAUGUAGAAGGUCGGGUUAACU [pwkr exNG2 2xF5 1xFMN.20] (Eterna round: R96, puzzle: Exclusion NG 2) | – | 200 | 101 | apparent KD of MS2 coat protein [4]: 52.6 nM
5 | UAUACUAGAUAGGAUAUACUAUAUAUAUUAUUCGUAGAAGGAUCUACAUGAGGAUCACCCAUGUUAACAGCAGU [JR_E6_Sub006] (puzzle: Exclusion 6) | 37.2 | – | – | –
6 | CUUUUGUGAGGAUAUUAGUAGUAUAUAAUUGGUGAUAUUGCUGAGAAGGCACAUGAGGAUCACCCAUGUACAAC [JR_Ex4_Sub034] (Eterna round: R97, puzzle: Exclusion 4) | – | 369 | 441 | –
7 | AAGAACGUAGGAUAUACAUGAGGAUCACCCAUGUGAGGAAGGAGUAGGAAGCGUGGAAGUAGAAGGACGGAGAG [JR_Exclu3_Sub075] (puzzle: Exclusion 3) | 39.4 | – | – | apparent KD of MS2 coat protein [1]: 27.9 nM; apparent KD of MS2 coat protein [3]: 29.3 nM
8 | CCUAUGUGAGGAUAUGUCUGGUCUUCUUUUAUUUUUUACAGACAGAAGGCACAUGAGGAUCACCCAUGUCAGAC [Ex4 - 3 - 48] (puzzle: Exclusion 4) | 23 | – | – | –
9 | AAACCCUGAGGAUAUACAUAACAACAAAGCCUCACGUGCCAACAUGAGGAUCACCCAUGUAGAAGGCGGGCCAA [Mod R3 Insanara 14 - Jieux - Exclusion 2] (Eterna round: R97, puzzle: Exclusion 2) | – | 37.3 | 15.1 | –
10 | CCGGAAUAGCAGGAUAUAGGAGUCGAUAGACACCUAGAAGGGCUGACAUGAGGAUCACCCAUGUGUCCUACCGG [Fiskers Ex 6 - 83] (puzzle: Exclusion 6) | 71.5 | – | – | –
11 | UCUUUCAUUGUGAGGAUAUGCCCAAAUAAAAGCGGGCAGAAGGCACAUGAGGAUCACCCAUGUCCUGCGGUUUU [salish99_bmx4_r4_149] (Eterna round: R97, puzzle: Brourd's mod of Exclusion 4) | – | 177 | 40.7 | –
12 | AUAAUGUAAGGAUAUCAGUCGACUAGCCUCGGCUAGUCGACUGAGAAGGUACAUGAGGAUCACCCAUGUGAAUA [E4/16-A2] (Eterna round: R97, puzzle: Exclusion 4) | – | 228 | 52.1 | –
13 | GGCCCAUGAGGAUAUCAGUCUGGAUCAGACAAGAUCCUGACUGAGAAGGCACAUGAGGAUCACCCAUGUAGGCC [Mat - Exclusion 4 - Eli Mod - D53] (Eterna round: R97, puzzle: Exclusion 4) | – | 18.3 | 18.7 | –
14 | AGAUGUUAUAAGGAUAUGCAGGCCAUCGCAUCAGCAGAAGGUGUAACAUGAGGAUCACCCAUGUAAACGAACUG [Eternabot (L1) Solution 44] (Eterna round: R97, puzzle: Exclusion 6) | – | 28.9 | 22.8 | –
15 | GCCGAAAAAGUGAGGAUAUACCUAUGGAUACAUAGGUAGAAGGCACAUGAGGAUCACCCAUGUAUCCUAACGGC [Eli bmx4 4.28] (Eterna round: R97, puzzle: Brourd's mod of Exclusion 4) | – | 362 | 29 | –
16 | AAGAAACAUGAGGAUCACCCAUGUGAGGAUAUGGCCCGCCCGGCGUGAGCUGGUUUUAUCAGAAGGCACAAAGG [salish99_ex1_r4_015] (Eterna round: R97, puzzle: Exclusion 1) | – | 39.4 | 44.6 | –
17 | UCACCUGGGUCAGGAUAUAAAGGGUCAGGAAGUUUAGAAGGGACUUAGGACAUGAGGAUCACCCAUGUUGAGAACUCGUUUGUA [Eternabot solution 25] (Eterna round: R96, puzzle: Exclusion NG 1) | – | 46.2 | 36.7 | apparent KD of MS2 coat protein [4]: 27.5 nM
18 | AGUAACAGAGGAUAUACUGUUUUAUGUGUUUAUUAUUUUAAACAUGAGGAUCACCCAUGUAGAAGGCUGAAUAA [JMF 82] (puzzle: Exclusion 2) | 40.3 | – | – | –

Row | Sequence | apparent KD of MS2 coat protein [2] [nM] | apparent KD of MS2 coat protein (input ligand: FMN 200 uM) [nM] | apparent KD of MS2 coat protein (input ligand: none) [nM] | other results
19 | UGCAUGGUAGGAUAUACGGAGCAUUAGGGUUUGUUAUGUGGACAUGAGGAUCACCCAUGUAGAAGGGCCGUGCU [JL-ex2-2.16 mat747 mod] (puzzle: Exclusion 2) | 32.6 | – | – | –
20 | AUAUAGCGAGGAUAUACAUGAGGAUCACCCAUGUAAUAAAUAUAUAUAUUUAUAUUAUGUAGAAGGCGCUAUAU [-18.5, -17.2 kcal, 39% A] (Eterna round: R97, puzzle: Exclusion 3) | – | 30.3 | 14.5 | –
21 | UUGUUUGUAGUGAGGAUAUCGUUGAGGAAGAGGAUCGAGAAGGCACAUGAGGAUCACCCAUGUUAGAUGUGGUU [JR_BMOE4_Sub082] (puzzle: Brourd's mod of Exclusion 4) | 99.1 | – | – | –
22 | AGCUGUGGCCGAGGAUAUCUAACUUCAAAUACCGACGUAUAGUCGGACAUGAGGAUCACCCAUGUAGAGAAGGCGGUCUCAGCA [Eli eng2 - 037] (Eterna round: R96, puzzle: Exclusion NG 2) | – | – | – | apparent KD of MS2 coat protein [4]: 12.3 nM
23 | AAGAAACAUGAGGAUCACCCAUGUGAGGAUAUGAAAAAGAAAAUAAAAUAAAUAAUAAUCAGAAGGCACAAAGG [Mat - Mod of Hog D6] (puzzle: Exclusion 1) | 44.4 | – | – | apparent KD of MS2 coat protein [1]: 43.1 nM; apparent KD of MS2 coat protein [3]: 37.3 nM
24 | AAAUAAUCAGGAUAUACAUGAGGAUCACCCAUGUACCUCUUGUACGAGGGCCGCCCGUGUAGAAGGGAUGACAA [Arralara] (puzzle: Exclusion 3) | 40.1 | – | – | apparent KD of MS2 coat protein [1]: 72.6 nM; apparent KD of MS2 coat protein [3]: 40 nM
25 | UUUUAACAUGAGGAUCACCCAUGUGAGGAUAUCGAAAUUUAUAUUAAUAUUUUUAAAACGAGAAGGCACAUUUU [JMF 67] (puzzle: Exclusion 1) | 53.5 | – | – | –
26 | AUCCUACAUGAGGAUCACCCAUGUCAGGAUAUCCAAGAAAUCUGGCCGUAUCGGCCAGGGAGAAGGGACAUGGC [jl-ex1-4.66 ViennaUCT mod] (Eterna round: R97, puzzle: Exclusion 1) | – | 85.6 | 28.4 | –
27 | UAAUUAAAUGUGAGGAUAUGCUGGUCCUUGGAUCAGCAGAAGGCACAUGAGGAUCACCCAUGUAAUUUAUUUAU [Mat - Exclusion 4 - JL Mod - D59] (puzzle: Brourd's mod of Exclusion 4) | 54.3 | – | – | –
28 | ACAUGAGGAUCACCCAUGUCCGGUUGGUCUGUUCCGGCUGUCGAGGAUAUAGUCCGGUGUUCGCGCUAGAAGGUGAGGGCUGGA [Aenatbe mod 46] (Eterna round: R96, puzzle: Exclusion NG 3) | – | 775 | 500 | apparent KD of MS2 coat protein [4]: 259 nM
29 | GCCCGGGCAGGAUAUACAAGCUAGUGCUGAAAAGUGCUAGUACAUGAGGAUCACCCAUGUAGAAGGGCCCGGGC [-37.6, -35.7 kcal, A 28% 2bis] (Eterna round: R97, puzzle: Exclusion 2) | – | 30.5 | 18.1 | –
30 | AAAAAACAAGGAUAUACGAAGGAUGGUUAUCUUAAUUUUUGACAUGAGGAUCACCCAUGUAGAAGGUGUUAAAA [JR_Exclusion2_Sub010] (puzzle: Exclusion 2) | 34.8 | – | – | –
31 | AGUACUAACACGUGUGUGUUAGUACAAUAAGCUUGUGAAACAUGAGGAUCACCCAUGUCCUCAUAAGCUCGUCUUAU [salish99_TOv2_r3_074] (Eterna round: R96, puzzle: Sensor v3, turn-off variant 2) | – | 14.9 | 17.1 | apparent KD of MS2 coat protein [4]: 514 nM
32 | AAGGGUGCCUUUAGAAAGACAUGAGGAUCACCCAUGUAGACUGAGGAUAUCCACUCCUAAGGACCGGAGAAGGCAGUGUAAUGC [Ex NG3 #62] (Eterna round: R96, puzzle: Exclusion NG 3) | – | 62.1 | 31.8 | apparent KD of MS2 coat protein [4]: 18.6 nM
33 | AAAUCACAUGAGGAUCACCCAUGUGAGGAUAUGAUACUAUGUACUUCGGUACAUAGUAUCAGAAGGCAUAUGGA [Ex1-3: 32] (puzzle: Exclusion 1) | 22.9 | – | – | –
34 | AGUCCACUUACAAGCUUUUACAUGAGGAUCACCCAUGUGUGGGACCCUAAGGGUGCUCAUGACCGCUCCAUACUCUC [Eternabot (L1) Solution 4] (Eterna round: R97, puzzle: Sensor, turn-off variant 1) | – | 240 | 254 | –
35 | UUCACGUCAGGAUAUCCAAAGUUCCGAAAUAACGGUACUUUGGAGAAGGGACAUGAGGAUCACCCAUGUCCUCG [LRO-Excl4-17-Nando 22 Mod] (Eterna round: R97, puzzle: Exclusion 4) | – | 40.3 | 22 | –
